Among the data in publication PMC5722929 are change of the co-precipitated amount after IPA against vehicle control values, retold here.

The assay has as its target AMPA glutamate receptor subunit GluA1 (mouse (endogenous in primary hippocampal neurons)) (UniProt P23818). In words: co-IP; endogenous proteins in lysates of hippocampal neurons treated with vehicle (CTR) or IPA (insulin 20 nM + palmitic acid 0.2 mM); IP buffer KCl 50 mM, Tris-HCl 50 mM pH 8, EDTA 10 mM, 1% Nonidet P-40; specific antibody or IgG (negative control) with protein G-sepharose 4B, 6 h at 4 °C; six washes; immunoblot. (Immunoblotting shows a protein as a band on a membrane.)
UniProt P23818, sequence (P23818 19-907): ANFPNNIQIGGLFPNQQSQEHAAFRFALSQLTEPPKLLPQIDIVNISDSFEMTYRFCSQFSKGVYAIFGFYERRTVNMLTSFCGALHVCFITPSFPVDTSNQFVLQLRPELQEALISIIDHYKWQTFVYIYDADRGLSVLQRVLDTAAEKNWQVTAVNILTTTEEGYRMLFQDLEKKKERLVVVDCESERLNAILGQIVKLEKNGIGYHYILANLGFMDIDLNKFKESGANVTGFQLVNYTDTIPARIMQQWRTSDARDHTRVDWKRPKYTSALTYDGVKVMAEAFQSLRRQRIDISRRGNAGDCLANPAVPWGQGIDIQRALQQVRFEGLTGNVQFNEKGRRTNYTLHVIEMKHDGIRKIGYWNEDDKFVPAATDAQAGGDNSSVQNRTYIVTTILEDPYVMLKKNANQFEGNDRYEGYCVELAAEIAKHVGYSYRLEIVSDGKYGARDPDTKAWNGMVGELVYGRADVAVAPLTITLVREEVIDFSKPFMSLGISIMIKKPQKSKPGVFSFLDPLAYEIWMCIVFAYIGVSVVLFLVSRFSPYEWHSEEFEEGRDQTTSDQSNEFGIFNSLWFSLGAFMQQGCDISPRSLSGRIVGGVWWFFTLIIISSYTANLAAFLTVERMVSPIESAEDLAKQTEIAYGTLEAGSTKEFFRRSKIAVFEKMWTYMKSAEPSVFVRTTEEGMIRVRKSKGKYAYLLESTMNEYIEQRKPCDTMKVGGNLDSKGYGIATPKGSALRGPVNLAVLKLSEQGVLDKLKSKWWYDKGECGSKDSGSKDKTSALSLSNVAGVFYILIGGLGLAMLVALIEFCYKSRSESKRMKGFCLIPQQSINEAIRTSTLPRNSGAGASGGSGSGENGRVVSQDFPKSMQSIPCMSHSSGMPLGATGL

Turning to “actin (from UniProt P60710 1-375) (natural protein)”, the change of the co-precipitated amount after IPA against vehicle control is -74%.
